Laboratory results as given in article PMC4546571 (Chemistry & biology, 2015).

Biological target: the molecule itself
Assay: seeded fibril assembly followed by ThT fluorescence

GIHKQKEKSRLQGGVLVNEILNHMKRATQIPSYKKLIMY (peptide, UniProt P15309 248-286, looked up) [PAP248-286]
binding result: binds
